# According to PMC3760798, “Analysis of the RelA:CBP/p300 Interaction Reveals Its Involvement in NF-κB-Driven Transcription” (PLoS Biology, 2013):
# B1: TAZ1 domain of mouse CBP (residues 340–439) (domain or fragment)
# chain: not shown
# notes: Isotopically labelled in some NMR samples; also called CBP–TAZ1; CH1; source: purified
# B2: GB1-tagged RelA–TA2 fragment 425–508 wt (domain or fragment, mouse, UniProt Q04207 425-508, looked up)
# chain: KSTQAGEGTLSEALLHLQFDADEDLGALLGNSTDPGVFTDLASVDNSEFQQLLNQGVSMSHSTAEPMLMEYPEAITRLVTGSQR
# notes: GB1 is the 58-residue B1 domain of streptococcal protein G, kept for concentration determination; also called RelA–TA2 fragment of Lys425–Arg508; source: expressed as His6-GB1 fusion, purified; His6-tag cleaved by TEV protease; not shown: His6, N-terminal, cleaved; GB1, N-terminal, kept
# B3: GB1-tagged RelA–TA2 fragment 425–508 (L449A) (domain or fragment, mouse, UniProt Q04207 425-508, looked up)
# chain: KSTQAGEGTLSEALLHLQFDADEDAGALLGNSTDPGVFTDLASVDNSEFQQLLNQGVSMSHSTAEPMLMEYPEAITRLVTGSQR
# notes: also called Leu449Ala; source: expressed as His6-GB1 fusion, purified; His6-tag cleaved by TEV protease; not shown: His6, N-terminal, cleaved; GB1, N-terminal, kept
# B4: GB1-tagged RelA–TA2 fragment 425–508 (S467D) (domain or fragment, mouse, UniProt Q04207 425-508, looked up)
# chain: KSTQAGEGTLSEALLHLQFDADEDLGALLGNSTDPGVFTDLADVDNSEFQQLLNQGVSMSHSTAEPMLMEYPEAITRLVTGSQR
# notes: also called RelA(Ser467Asp); phosphomimetic mutant; source: expressed as His6-GB1 fusion, purified; His6-tag cleaved by TEV protease; not shown: His6, N-terminal, cleaved; GB1, N-terminal, kept
# B5: GB1-tagged RelA–TA2 fragment 425–508 (L465A) (domain or fragment, mouse, UniProt Q04207 425-508, looked up)
# chain: KSTQAGEGTLSEALLHLQFDADEDLGALLGNSTDPGVFTDAASVDNSEFQQLLNQGVSMSHSTAEPMLMEYPEAITRLVTGSQR
# notes: also called Leu465Ala; source: expressed as His6-GB1 fusion, purified; His6-tag cleaved by TEV protease; not shown: His6, N-terminal, cleaved; GB1, N-terminal, kept
# B6: GB1-tagged RelA fragment 441–508 wt (domain or fragment, mouse, UniProt Q04207 441-508, looked up)
# chain: LQFDADEDLGALLGNSTDPGVFTDLASVDNSEFQQLLNQGVSMSHSTAEPMLMEYPEAITRLVTGSQR
# notes: RelA (p65), mouse, residues 441-508; also called N-terminal truncation to remove residues Lys425–His440; source: expressed as His6-GB1 fusion, purified; His6-tag cleaved by TEV protease; not shown: His6, N-terminal, cleaved; GB1, N-terminal, kept
# Key:
# Conditions in all cases: both partners purified
# [1] = biological target: B1; assay: pull-down; GST-RelA fragments (20 µg) on glutathione sepharose beads with purified TAZ1 (10 µg); 20 mM Tris pH 7.5, 150 mM NaCl, 0.5 mM DTT; 4°C, 30 min; washes with 0.3% TritonX-100; SDS-PAGE
# [2] = biological target: B1; assay: NMR structure; solution structure of the complex; refolded TAZ1 and RelA fragment mixed; 25°C, 20 mM Tris pH 6.5, 40 mM NaCl, 2 mM DTT; 0.7–1.2 mM protein
# [3] = biological target: B2; assay: ITC; TAZ1 (169 to 185 µM) in the syringe, GB1-tagged RelA–TA2 peptide (10 to 18 µM) in the cell; 25°C; 20 mM Tris pH 8.0, 50 mM NaCl, 1 mM DTT; single-binding site model
# [4] = biological target: B4; assay: as above
# [5] = biological target: B2; assay: ITC; TAZ1 (169 to 185 µM) in the syringe, GB1-tagged RelA–TA2 peptide (10 to 18 µM) in the cell; 25°C; 20 mM Tris pH 8.0, 150 mM NaCl, 1 mM DTT; single-binding site model
# [6] = biological target: B4; assay: as above
# [7] = biological target: B3; assay: as above
# [8] = biological target: B5; assay: as above
# [9] = biological target: B6; assay: as above
# [10] = biological target: B1; assay: ITC; TAZ1 (169 to 185 µM) in the syringe, GB1-tagged RelA–TA2 peptide (10 to 18 µM) in the cell; 25°C; 20 mM Tris pH 8.0, 50 mM NaCl, 1 mM DTT; single-binding site model
# [11] = biological target: B1; assay: ITC; TAZ1 (169 to 185 µM) in the syringe, GB1-tagged RelA–TA2 peptide (10 to 18 µM) in the cell; 25°C; 20 mM Tris pH 8.0, 150 mM NaCl, 1 mM DTT; single-binding site model
binder,measurement,setting,value
"GST-RelA fragment (Lys425–Pro490) Met483Ala (domain or fragment, mouse, UniProt Q04207 425-490, looked up, also called RelA–TA2 M483A (GST); source: E. coli BL21(DE3), purified (glutathione sepharose); not shown: GST, N-terminal, kept) KSTQAGEGTLSEALLHLQFDADEDLGALLGNSTDPGVFTDLASVDNSEFQQLLNQGVSASHSTAEP",binding result,[1],binds
"GST-RelA fragment (Lys425–Pro490), wild type (domain or fragment, mouse, UniProt Q04207 425-490, looked up, also called GST-RelA–TA2; construct T11; source: E. coli BL21(DE3), purified (glutathione sepharose); not shown: GST, N-terminal, kept) KSTQAGEGTLSEALLHLQFDADEDLGALLGNSTDPGVFTDLASVDNSEFQQLLNQGVSMSHSTAEP",binding result,[1],binds
"RelA–TA2 (residues 425–490), tag cleaved (domain or fragment, mouse, UniProt Q04207 425-490, looked up, 15N/13C labelled for NMR; source: expressed as His6-GB1 fusion, purified (Ni-NTA under denaturing conditions, thrombin cleavage, reverse-phase HPLC); not shown: His6, N-terminal, cleaved; GB1, N-terminal, cleaved) KSTQAGEGTLSEALLHLQFDADEDLGALLGNSTDPGVFTDLASVDNSEFQQLLNQGVSMSHSTAEP",binding result,[2],binds
B1,dH,[3],-5.9 kcal/mol
same,dH,[4],-6.5 kcal/mol
same,dH,[5],-7.2 kcal/mol
same,dH,[6],-7.8 kcal/mol
same,dH,[7],-5.4 kcal/mol
same,dH,[8],-2.4 kcal/mol
same,dH,[9],-8.3 kcal/mol
B2,Kd,[10],57 nM
same,Kd,[11],244 nM
B3,Kd,[11],1600 nM
B4,Kd,[10],41.2 nM
same,Kd,[11],174 nM
B5,Kd,[11],1710 nM
B6,Kd,[11],387 nM
